From IntAct's records for PubMed 31515488

B1: G1/S-specific cyclin-D3 (Homo sapiens), P30281 (parent)
chain: MELLCCEGTRHAPRAGPDPRLLGDQRVLQSLLRLEERYVPRASYFQCVQREIKPHMRKMLAYWMLEVCEEQRCEEEVFPLAMNYLDRYLSCVPTRKAQLQLLGAVCMLLASKLRETTPLTIEKLCIYTDHAVSPRQLRDWEVLVLGKLKWDLAAVIAHDFLAFILHRLSLPRDRQALVKKHAQTFLALCATDYTFAMYPPSMIATGSIGAAVQGLGACSMSGDELTELLAGITGTEVDCLRACQEQIEAALRESLREASQTSSSPAPKAPRGSSSQGPSQTSTPTDVTAIHL
B2: RNA-binding protein 15 (Homo sapiens), Q96T37-3 (parent)
chain: MRTAGRDPVPRRSPRWRRAVPLCETSAGRRVTQLRGDDLRRPATMKGKERSPVKAKRSRGGEDSTSRGERSKKLGGSGGSNGSSSGKTDSGGGSRRSLHLDKSSSRGGSREYDTGGGSSSSRLHSYSSPSTKNSSGGGESRSSSRGGGGESRSSGAASSAPGGGDGAEYKTLKISELGSQLSDEAVEDGLFHEFKRFGDVSVKISHLSGSGSGDERVAFVNFRRPEDARAAKHARGRLVLYDRPLKIEAVYVSRRRSRSPLDKDTYPPSASVVGASVGGHRHPPGGGGGQRSLSPGGAALGYRDYRLQQLALGRLPPPPPPPLPRDLERERDYPFYERVRPAYSLEPRVGAGAGAAPFREVDEISPEDDQRANRTLFLGNLDITVTESDLRRAFDRFGVITEVDIKRPSRGQTSTYGFLKFENLDMSHRAKLAMSGKIIIRNPIKIGYGKATPTTRLWVGGLGPWVPLAALAREFDRFGTIRTIDYRKGDSWAYIQYESLDAAHAAWTHMRGFPLGGPDRRLRVDFADTEHRYQQQYLQPLPLTHYELVTDAFGHRAPDPLRGARDRTPPLLYRDRDRDLYPDSDWVPPPPPVRERSTRTAATSVPAYEPLDSLDRRRDGWSLDRDRGDRDLPSSRDQPRKRRLPEESGGRHLDRSPESDRPRKRHCAPSPDRSPELSSSRDRYNSDNDRSSRLLLERPSPIRDRRGSLEKSQGDKRDRKNSASAERDRKHRTTAPTEGKSPLKKEDRSDGSAPSTSTASSKLKSPSQKQDGGTAPVASASPKLCLAWQGMLLLKNSNFPSNMHLLQGDLQVASSLLVEGSTGGKVAQLKITQRLRLDQPKLDEVTRRIKVAGPNGYAILLAVPGSSDSRSSSSSAASDTATSTQRPLRNLVSYLKQKQAAGVISLPVGGNKDKENTGVLHAFPPCEFSQQFLDSPAKALAKSEEDYLVMIIVRAKLVEQRMKIWNSKL
B3: Barrier-to-autointegration factor (Homo sapiens), O75531 (parent)
chain: MTTSQKHRDFVAEPMGEKPVGSLAGIGEVLGKKLEERGFDKAYVVLGQFLVLKKDEDLFREWLKDTCGANAKQSRDCFGCLREWCDAFL
partner: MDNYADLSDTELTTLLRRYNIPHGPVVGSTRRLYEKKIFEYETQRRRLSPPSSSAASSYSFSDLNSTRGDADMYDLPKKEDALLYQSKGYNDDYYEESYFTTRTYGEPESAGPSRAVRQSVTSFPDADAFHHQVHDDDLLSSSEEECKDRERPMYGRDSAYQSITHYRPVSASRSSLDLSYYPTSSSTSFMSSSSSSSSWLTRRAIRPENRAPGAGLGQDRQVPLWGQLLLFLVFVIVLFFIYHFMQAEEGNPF
B4: U3 small nucleolar RNA-associated protein 25 homolog (Homo sapiens), Q68CQ4 (parent)
chain: MGKRGSRSQSQLLNTLTKKQKKHLRDFGEEHPFYDRVSRKEAKPQICQLSESSDSSDSESDSESEPQQVSGYHRLLATLKNVSEEEEEDEEEEEEEDSIVDDAEMNDEDGGSDVSVEEEMAAESTESPENVALSADPEGKEDGEEPPGTSQTSPEEFTDAKHESLFSLETNFLEEESGDNSSLKASQDPFLQHVNKELKEKAIQAVATNPKTTHELKWPILGQLFFSSKFQKLETFKPPKDIDLKSLHLQKPLESTWTKTNSQFLSGPQKSSSPFTPLQKELFLIMNSYRDLFYPERTALKNGEEIRHVYCLHVINHILKANAQVLGNNSRRRSQKFGVGDDDDFRDQGLTRPKVLIVVPFREAALRVVQLFISLLEGDSKKKIIVSNKKRFQGEYGSDPEERPPNLKRPEDYEAVFVGNIDDHFRIGVAILQRSIRLYAPFYSSDILIASPLGLRTIIGGEGEKKRDFDFLSSIELLIIDQADIYLMQNWEHVLHLMNHMNLLPLDSHGVDFSRVRMWSLNNWSKYYRQTLLFGALQDAQINSVFNKYCVNMQGQVAVRNVPMTGSISHVLVQLPHVFQRMEAENLASVIDARFNFFVNKILPQYRDAVMSHTLIYIPSYFDFVRLRNYFKKEELNFTHICEYTQKSGVSRARHFFLQGEKQFLLFTERFHFYKRYTIKGIRNLIFYELPTYPHFYSEICNMLRATNRGEEATWTCTVLYSKYDAQRLAAVVGVERAAQMLQSNKNVHLFITGEK
B5: Protein FAM9B (Homo sapiens), Q8IZU0 (parent)
chain: MAAWGKKHAGKDPVRDECEERNRFTETREEDVTDEHGEREPFAETDEHTGANTKKPEDTAEDLTAKRKRMKMDKTCSKTKNKSKHALRKKQLKRQKRDYIHSLKLLNVLEEYITDEQKEEEEEEGEEEELIRIFQEQQKKWQQYRSVRRERLKEMKLLRDQFVKALEDFEDLCDRVFSDEDSELDN
partner: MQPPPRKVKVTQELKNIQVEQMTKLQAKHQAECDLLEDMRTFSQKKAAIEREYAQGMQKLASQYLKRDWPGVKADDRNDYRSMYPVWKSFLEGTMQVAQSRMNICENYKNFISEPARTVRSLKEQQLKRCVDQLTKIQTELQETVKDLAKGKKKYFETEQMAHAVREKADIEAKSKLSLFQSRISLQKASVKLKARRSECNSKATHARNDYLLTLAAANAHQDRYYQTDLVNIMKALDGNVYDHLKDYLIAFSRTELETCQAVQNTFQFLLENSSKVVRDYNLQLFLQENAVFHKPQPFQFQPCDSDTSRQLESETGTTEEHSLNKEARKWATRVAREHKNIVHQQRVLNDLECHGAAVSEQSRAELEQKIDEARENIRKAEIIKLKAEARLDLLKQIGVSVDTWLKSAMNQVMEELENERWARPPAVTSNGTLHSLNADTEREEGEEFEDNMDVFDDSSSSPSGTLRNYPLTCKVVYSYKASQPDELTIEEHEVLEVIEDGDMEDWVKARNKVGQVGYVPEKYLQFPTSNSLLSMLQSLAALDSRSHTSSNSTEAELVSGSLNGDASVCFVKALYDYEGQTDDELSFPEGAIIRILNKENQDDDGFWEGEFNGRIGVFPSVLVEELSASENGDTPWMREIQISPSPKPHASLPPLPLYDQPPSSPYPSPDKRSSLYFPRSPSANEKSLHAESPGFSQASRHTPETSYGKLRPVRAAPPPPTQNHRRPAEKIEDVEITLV
B6: Peroxisomal bifunctional enzyme (Homo sapiens), Q08426 (parent)
chain: MAEYTRLHNALALIRLRNPPVNAISTTLLRDIKEGLQKAVIDHTIKAIVICGAEGKFSAGADIRGFSAPRTFGLTLGHVVDEIQRNEKPVVAAIQGMAFGGGLELALGCHYRIAHAEAQVGLPEVTLGLLPGARGTQLLPRLTGVPAALDLITSGRRILADEALKLGILDKVVNSDPVEEAIRFAQRVSDQPLESRRLCNKPIQSLPNMDSIFSEALLKMRRQHPGCLAQEACVRAVQAAVQYPYEVGIKKEEELFLYLLQSGQARALQYAFFAERKANKWSTPSGASWKTASARPVSSVGVVGLGTMGRGIVISFARARIPVIAVDSDKNQLATANKMITSVLEKEASKMQQSGHPWSGPKPRLTSSVKELGGVDLVIEAVFEEMSLKKQVFAELSAVCKPEAFLCTNTSALDVDEIASSTDRPHLVIGTHFFSPAHVMKLLEVIPSQYSSPTTIATVMNLSKKIKKIGVVVGNCFGFVGNRMLNPYYNQAYFLLEEGSKPEEVDQVLEEFGFKMGPFRVSDLAGLDVGWKSRKGQGLTGPTLLPGTPARKRGNRRYCPIPDVLCELGRFGQKTGKGWYQYDKPLGRIHKPDPWLSKFLSRYRKTHHIEPRTISQDEILERCLYSLINEAFRILGEGIAASPEHIDVVYLHGYGWPRHKGGPMFYASTVGLPTVLEKLQKYYRQNPDIPQLEPSDYLKKLASQGNPPLKEWQSLAGSPSSKL

Variants of: B1
Settings: with cdk6_human CDK6, Q00534
Sequence of cdk6_human CDK6, Q00534 (Q00534 whole entry): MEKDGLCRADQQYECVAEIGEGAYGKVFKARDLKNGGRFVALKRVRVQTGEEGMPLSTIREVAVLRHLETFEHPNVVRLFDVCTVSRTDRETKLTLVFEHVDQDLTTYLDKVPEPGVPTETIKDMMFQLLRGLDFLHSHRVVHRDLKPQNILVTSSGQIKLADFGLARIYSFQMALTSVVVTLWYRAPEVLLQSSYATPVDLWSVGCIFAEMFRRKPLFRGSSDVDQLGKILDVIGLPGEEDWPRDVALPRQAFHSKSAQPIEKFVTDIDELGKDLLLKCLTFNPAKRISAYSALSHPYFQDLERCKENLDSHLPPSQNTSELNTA

| effect of a mutation on the interaction | Variant |
| --- | --- |
| with no effect | E253D |

Variants of: B1
Settings: with cdn1a_human CDKN1A

| effect of a mutation on the interaction | Variant |
| --- | --- |
| with no effect | E253D |

Variants of: B2
Settings: with nav2_human NAV2, Q8IVL1

| effect of a mutation on the interaction | Variant |
| --- | --- |
| disrupting interaction strength | R961Q |

Variants of: B3
Settings: with emd_human EMD

| effect of a mutation on the interaction | Variant |
| --- | --- |
| with no effect | A12T |

Variants of: B4
Settings: with rufy1_human RUFY1, Q96T51
Sequence of rufy1_human RUFY1, Q96T51 (Q96T51 whole entry): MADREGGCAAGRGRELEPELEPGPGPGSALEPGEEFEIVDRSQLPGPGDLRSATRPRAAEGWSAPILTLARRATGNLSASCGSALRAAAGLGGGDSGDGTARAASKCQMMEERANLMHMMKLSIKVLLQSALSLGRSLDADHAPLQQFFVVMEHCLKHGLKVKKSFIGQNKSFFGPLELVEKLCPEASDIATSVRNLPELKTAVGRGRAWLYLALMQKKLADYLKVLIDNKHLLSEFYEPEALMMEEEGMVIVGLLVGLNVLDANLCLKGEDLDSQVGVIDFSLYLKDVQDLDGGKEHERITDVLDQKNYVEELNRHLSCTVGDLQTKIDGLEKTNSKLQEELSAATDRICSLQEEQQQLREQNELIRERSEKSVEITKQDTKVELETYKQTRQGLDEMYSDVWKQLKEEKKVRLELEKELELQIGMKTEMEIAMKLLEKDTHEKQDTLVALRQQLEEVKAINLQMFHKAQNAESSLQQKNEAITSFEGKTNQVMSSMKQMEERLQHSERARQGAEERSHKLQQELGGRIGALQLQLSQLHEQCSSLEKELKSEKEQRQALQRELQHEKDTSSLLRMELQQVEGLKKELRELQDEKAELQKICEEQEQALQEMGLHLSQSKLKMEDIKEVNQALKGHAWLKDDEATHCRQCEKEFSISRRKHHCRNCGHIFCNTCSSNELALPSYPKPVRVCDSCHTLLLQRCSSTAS

| effect of a mutation on the interaction | Variant |
| --- | --- |
| with no effect | Q67E |
| with no effect | G111D |

Variants of: B4
Settings: with cep70_human CEP70, Q8NHQ1
Sequence of cep70_human CEP70, Q8NHQ1 (Q8NHQ1 whole entry): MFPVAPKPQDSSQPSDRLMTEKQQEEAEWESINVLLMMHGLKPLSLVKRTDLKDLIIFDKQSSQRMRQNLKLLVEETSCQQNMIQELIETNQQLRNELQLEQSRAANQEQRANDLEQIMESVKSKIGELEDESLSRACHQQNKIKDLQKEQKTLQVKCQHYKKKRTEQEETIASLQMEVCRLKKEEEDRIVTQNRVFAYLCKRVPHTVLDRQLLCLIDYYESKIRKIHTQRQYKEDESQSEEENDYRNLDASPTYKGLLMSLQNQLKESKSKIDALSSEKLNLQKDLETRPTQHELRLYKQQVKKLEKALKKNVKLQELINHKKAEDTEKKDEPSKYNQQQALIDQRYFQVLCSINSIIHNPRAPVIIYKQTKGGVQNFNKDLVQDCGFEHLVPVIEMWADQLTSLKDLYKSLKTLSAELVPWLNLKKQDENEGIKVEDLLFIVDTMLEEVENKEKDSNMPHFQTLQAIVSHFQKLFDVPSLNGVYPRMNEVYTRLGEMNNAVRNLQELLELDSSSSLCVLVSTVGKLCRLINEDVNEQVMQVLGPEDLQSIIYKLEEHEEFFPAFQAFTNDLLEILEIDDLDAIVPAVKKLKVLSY

| effect of a mutation on the interaction | Variant |
| --- | --- |
| with no effect | Q67E |
| with no effect | G111D |

Variants of: B4
Settings: with trim1_human MID2, Q9UJV3
Sequence of trim1_human MID2, Q9UJV3 (Q9UJV3 whole entry): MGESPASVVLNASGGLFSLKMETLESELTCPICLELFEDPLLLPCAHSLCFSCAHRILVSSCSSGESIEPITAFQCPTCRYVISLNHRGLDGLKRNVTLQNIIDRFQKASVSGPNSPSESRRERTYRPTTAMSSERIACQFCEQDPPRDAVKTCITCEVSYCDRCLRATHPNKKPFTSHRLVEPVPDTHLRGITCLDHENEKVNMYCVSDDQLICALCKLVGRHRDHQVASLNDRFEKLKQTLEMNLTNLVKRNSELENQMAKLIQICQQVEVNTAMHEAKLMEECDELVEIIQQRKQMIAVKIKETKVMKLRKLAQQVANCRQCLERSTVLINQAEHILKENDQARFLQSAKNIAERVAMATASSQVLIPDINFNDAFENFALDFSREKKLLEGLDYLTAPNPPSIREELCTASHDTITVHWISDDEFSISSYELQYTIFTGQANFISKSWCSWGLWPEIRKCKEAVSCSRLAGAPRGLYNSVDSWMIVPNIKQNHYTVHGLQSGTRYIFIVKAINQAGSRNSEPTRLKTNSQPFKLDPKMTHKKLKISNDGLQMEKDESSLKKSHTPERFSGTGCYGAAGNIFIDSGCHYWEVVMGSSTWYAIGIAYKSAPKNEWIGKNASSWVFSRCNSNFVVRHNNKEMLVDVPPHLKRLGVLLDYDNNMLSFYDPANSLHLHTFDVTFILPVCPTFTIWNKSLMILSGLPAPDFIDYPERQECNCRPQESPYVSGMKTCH

| effect of a mutation on the interaction | Variant |
| --- | --- |
| with no effect | Q67E |
| with no effect | G111D |

Variants of: B5
Settings: with fcsd2_human FCHSD2, O94868

| effect of a mutation on the interaction | Variant |
| --- | --- |
| with no effect | R23H |

Variants of: B6
Settings: with tpp2_human TPP2, P29144

| effect of a mutation on the interaction | Variant |
| --- | --- |
| disrupting interaction strength | I646T |
| with no effect | S703F |
| with no effect | L715S |

Variants of: B6
Settings: with actb_human ACTB

| effect of a mutation on the interaction | Variant |
| --- | --- |
| disrupting interaction strength | I646T |
| with no effect | S703F |
| with no effect | L715S |

Variants of: B6
Settings: with actg_human ACTG1, P63261

| effect of a mutation on the interaction | Variant |
| --- | --- |
| disrupting interaction strength | I646T |
| with no effect | S703F |
| with no effect | L715S |

Variants of: B6
Settings: with tnip1_human TNIP1, Q15025
Sequence of tnip1_human TNIP1, Q15025 (Q15025 whole entry): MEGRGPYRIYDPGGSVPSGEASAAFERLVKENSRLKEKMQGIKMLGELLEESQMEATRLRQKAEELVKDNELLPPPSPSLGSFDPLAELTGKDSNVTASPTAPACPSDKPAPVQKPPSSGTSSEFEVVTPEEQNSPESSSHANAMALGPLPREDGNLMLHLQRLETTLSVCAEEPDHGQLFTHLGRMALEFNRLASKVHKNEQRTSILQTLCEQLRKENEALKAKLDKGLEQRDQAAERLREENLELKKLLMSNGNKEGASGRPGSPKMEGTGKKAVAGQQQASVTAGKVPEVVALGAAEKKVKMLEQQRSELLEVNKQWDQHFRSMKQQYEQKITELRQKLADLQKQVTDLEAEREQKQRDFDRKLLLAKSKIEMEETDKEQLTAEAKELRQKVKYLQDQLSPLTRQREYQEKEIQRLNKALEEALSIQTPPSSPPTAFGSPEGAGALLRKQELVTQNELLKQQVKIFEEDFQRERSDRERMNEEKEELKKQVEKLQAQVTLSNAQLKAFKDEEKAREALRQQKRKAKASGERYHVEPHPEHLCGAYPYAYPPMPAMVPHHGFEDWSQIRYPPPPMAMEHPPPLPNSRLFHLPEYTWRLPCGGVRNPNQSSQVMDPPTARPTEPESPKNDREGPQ

| effect of a mutation on the interaction | Variant |
| --- | --- |
| disrupting interaction strength | I646T |
| with no effect | S703F |
| with no effect | L715S |
